The results in this text go back to paper PMC8182806, “Cryo-EM structures of the full-length human KCC2 and KCC3 cation-chloride cotransporters” (Cell Research, 2020).

For data set [1], the target named is human KCC3 (SLC12A6), K+-Cl- cotransporter 3, full length (human) (UniProt Q9UHW9). The data set can be described thus: cryo-EM structure; single particle cryo-EM of the purified full-length transporter, no inhibitor; KCC2 at 3.2 Å, KCC3 at 3.3 Å overall.
Data set [2] deals with the molecule itself. Described as above.

Consider “human KCC3 (SLC12A6), K+-Cl- cotransporter 3, full length (from UniProt Q9UHW9-2 1-1099) (natural protein)”, for which, in data set [1], the stoichiometry N came out at 2.

B1: human KCC2 (SLC12A5), K+-Cl- cotransporter 2, full length (natural protein, UniProt Q9H2X9 1-1139, looked up)
chain: MSRRFTVTSLPPAGPARSPDPESRRHSVADPRHLPGEDVKGDGNPKESSPFINSTDTEKGKEYDGKNMALFEEEMDTSPMVSSLLSGLANYTNLPQGSREHEEAENNEGGKKKPVQAPRMGTFMGVYLPCLQNIFGVILFLRLTWVVGIAGIMESFCMVFICCSCTMLTAISMSAIATNGVVPAGGSYYMISRSLGPEFGGAVGLCFYLGTTFAGAMYILGTIEILLAYLFPAMAIFKAEDASGEAAAMLNNMRVYGTCVLTCMATVVFVGVKYVNKFALVFLGCVILSILAIYAGVIKSAFDPPNFPICLLGNRTLSRHGFDVCAKLAWEGNETVTTRLWGLFCSSRFLNATCDEYFTRNNVTEIQGIPGAASGLIKENLWSSYLTKGVIVERSGMTSVGLADGTPIDMDHPYVFSDMTSYFTLLVGIYFPSVTGIMAGSNRSGDLRDAQKSIPTGTILAIATTSAVYISSVVLFGACIEGVVLRDKFGEAVNGNLVVGTLAWPSPWVIVIGSFFSTCGAGLQSLTGAPRLLQAISRDGIVPFLQVFGHGKANGEPTWALLLTACICEIGILIASLDEVAPILSMFFLMCYMFVNLACAVQTLLRTPNWRPRFRYYHWTLSFLGMSLCLALMFICSWYYALVAMLIAGLIYKYIEYRGAEKEWGDGIRGLSLSAARYALLRLEEGPPHTKNWRPQLLVLVRVDQDQNVVHPQLLSLTSQLKAGKGLTIVGSVLEGTFLENHPQAQRAEESIRRLMEAEKVKGFCQVVISSNLRDGVSHLIQSGGLGGLQHNTVLVGWPRNWRQKEDHQTWRNFIELVRETTAGHLALLVTKNVSMFPGNPERFSEGSIDVWWIVHDGGMLMLLPFLLRHHKVWRKCKMRIFTVAQMDDNSIQMKKDLTTFLYHLRITAEVEVVEMHESDISAYTYEKTLVMEQRSQILKQMHLTKNEREREIQSITDESRGSIRRKNPANTRLRLNVPEETAGDSEEKPEEEVQLIHDQSAPSCPSSSPSPGEEPEGEGETDPEKVHLTWTKDKSVAEKNKGPSPVSSEGIKDFFSMKPEWENLNQSNVRRMHTAVRLNEVIVKKSRDAKLVLLNMPGPPRNRNGDENYMEFLEVLTEHLDRVMLVRGGGREVITIYS
notes: K+-Cl- cotransporter KCC2 (SLC12A5), human, full length; Printed residues: Y407, N-terminal loop A65-N83; It says the KCC2 structure is very similar to that of KCC3; source: expressed and purified
For B1, the binding result in data set [2] is listed as “binds”.
